The values below come from patent publication US12319739 (F STAR DELTA, dated 2025).

Assay [1] addresses T1, mouse CD137 ligand on DO11.10 cells (mouse, UniProt P41274 1-309).
T1 construct: whole, on cells
T1 sequence (looked up): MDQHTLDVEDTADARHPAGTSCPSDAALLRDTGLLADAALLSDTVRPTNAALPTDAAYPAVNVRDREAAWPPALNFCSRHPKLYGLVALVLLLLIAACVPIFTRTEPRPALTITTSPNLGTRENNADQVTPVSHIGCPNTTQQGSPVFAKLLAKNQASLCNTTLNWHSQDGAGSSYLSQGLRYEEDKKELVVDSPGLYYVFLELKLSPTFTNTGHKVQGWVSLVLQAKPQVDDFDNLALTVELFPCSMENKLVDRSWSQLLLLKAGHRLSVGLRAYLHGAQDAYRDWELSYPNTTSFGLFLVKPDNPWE
Nature of the assay: flow cytometry, detected with anti mouse Fc antibody.
Procedure: Cells were incubated with the CD137 antigens for 1 hour, and then a fluorescently labelled anti mouse Fc fragment antibody was used to detect cell binding.

In another assay the target is T2, human OX40 (human, UniProt P43489 29-216).
T2 sequence (looked up): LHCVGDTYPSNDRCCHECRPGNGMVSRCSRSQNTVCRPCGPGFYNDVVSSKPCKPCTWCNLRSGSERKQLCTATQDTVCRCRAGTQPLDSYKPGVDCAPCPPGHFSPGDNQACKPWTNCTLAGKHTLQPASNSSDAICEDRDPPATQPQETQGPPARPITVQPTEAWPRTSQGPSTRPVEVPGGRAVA
Put plainly: SPR, receptor amine-coupled ~1000 RU. The method, then:
(§1) The specificity of the anti-human CD137 Fcabs for human CD137 compared to other related TNFSFR family members was tested. 8 of the Fcabs were tested in mock mAb^2 (HelD1.3) format and measured by SPR in a Biacore T200 (GE Healthcare) by testing for binding to other human TNFRSF receptors: CD40, OX40 and GITR. Amine coupling (amine coupling kit, GE Healthcare, BR-1000-50) was used to coat human CD40, GITR and OX40 to approximately 1000 RU in Biacore CM5 chips (GE Healthcare, cat no 29149603). […] The chip was regenerated by injection of 10 mM glycine pH 2.5 for 12 s at 30 µl/min. Antibodies specific to the different TNFRSF members were used as positive controls to verify Biacore chip coating. Data was double reference subtracted and analysed using BIAevaluation 3.2 software.

Another assay concerns the target T3, human GITR (human, UniProt Q9Y5U5 26-161, limits assumed).
T3 sequence (looked up): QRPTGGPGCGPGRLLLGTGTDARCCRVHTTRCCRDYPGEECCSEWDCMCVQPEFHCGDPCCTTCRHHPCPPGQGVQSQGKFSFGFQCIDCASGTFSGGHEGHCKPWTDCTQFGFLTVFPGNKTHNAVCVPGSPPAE
Nature of the assay: SPR, receptor amine-coupled ~1000 RU. On the procedure: as §1

Another assay deals with human CD40 (human, UniProt P25942 21-193). Nature of the assay: SPR, receptor amine-coupled ~1000 RU. The method, then: as §1
The target of assay [2] is human CD137 expressed on cells (human, UniProt Q07011 24-255). Put plainly: cell-based or functional assay.
The target of another assay is T4, cCD137-mFc-Avi (cynomolgus; mouse, one biotin on each Avi tag in the biotinylated form).
T4 construct: also called cynomolgus dimeric CD137; cyno CD137-mFc-Avi
T4 chain: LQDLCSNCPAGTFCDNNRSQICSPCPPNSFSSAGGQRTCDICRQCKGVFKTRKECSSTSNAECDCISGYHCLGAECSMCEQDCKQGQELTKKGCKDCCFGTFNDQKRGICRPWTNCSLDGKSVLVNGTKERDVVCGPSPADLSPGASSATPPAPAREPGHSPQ
Put plainly: SPR, mAb2 captured by anti-human Fab, antigen in solution. The method, then: (§2) Each mAb^2 was captured to approximately 150 RU by injecting a 3 µg/ml solution of mAb^2 diluted in HBS-EP+buffer (GE Healthcare #BR1006-69) for 60 seconds at 30 µl/min. Then different concentrations of human, cyno or mouse CD137 antigen (unbiotinylated human, cyno or mouse CD137-mFc-Avi or human CD137-Avi-His) in HBS-EP+buffer were flowed over the chip for 3 min at 60 µl/min and then allowed to dissociate for 10 minutes. After each antigen concentration the chip was regenerated by injecting 10 mM glycine pH 2.1 at a flow rate of 30 µl/min for 30 seconds. Buffer HBS-EP+ was injected before the highest concentration of antigen and after the lowest concentration of antigen for reference subtraction, and one of the concentrations at random was repeated twice. The binding kinetics were fit with a 1:1 Langmuir model to generate equilibrium binding constants (K_D) for each sample. Data analysis was performed with BiaEvaluation software version 3.2.

The next assay concerns the target T5, hCD137-Avi-His (human, UniProt Q07011 24-186, single biotin on the Avi tag in the biotinylated form).
T5 construct: Monomer; also called human monomeric CD137; human CD137-Avi-His
The assay is described as above. The method, then: as §2

The target of a further assay is T6, hCD137-mFc-Avi (human; mouse, UniProt Q07011 24-186, one biotin on each Avi tag in the biotinylated form).
T6 construct: also called human dimeric CD137; human CD137-mFc-Avi
The assay is described as above. The method, then: as §2

In assay [3] the target is mouse CD137 expressed on cells (mouse, UniProt P20334 24-256). Put plainly: cell-based or functional assay.
The target of the next assay is T7, mouse GITR (mouse, UniProt O35714 20-153, limits assumed, chemically biotinylated (EZ-Link Sulfo-NHS-SS-Biotin)).
T7 sequence (looked up): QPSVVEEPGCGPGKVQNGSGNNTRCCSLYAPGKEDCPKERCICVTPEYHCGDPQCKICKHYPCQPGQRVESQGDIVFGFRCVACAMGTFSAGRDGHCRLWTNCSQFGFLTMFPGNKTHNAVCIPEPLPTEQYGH
Nature of the assay: BLI (Octet), biotinylated receptor on streptavidin sensors. On the procedure: (§3) The specificity of the anti-mouse CD137 Fcabs for mouse CD137 were tested in HeID1.3 "mock" mAb² format and measured by BLI in an Octet QKe system by testing for binding of the Fcabs to other mouse TNFRSF receptors (CD40, OX40, GITR). Streptavidin biosensors (PALL ForteBio 18-5021) to coat 10 ng/μl mouse CD40, GITR, OX40 receptors (all obtained from R&D Systems and biotinylated using an EZ-Link Sulfo-NHS-SS-Biotin kit from Thermoscientific #21328). Anti-mouse CD137 Fcabs in mock mAb² format were diluted 1:1 in kinetic buffer (PALL 18-1092) to a final concentration of at least 1 μM. Antigen-coated sensors were dipped into the mAb² solutions for 180 seconds followed by 180 seconds in 1× kinetic buffer. Antibodies for each of the TNFRSF receptors were used as positive controls.

The target of the next assay is mouse CD40 (mouse, UniProt P27512 24-193, limits assumed, chemically biotinylated (EZ-Link Sulfo-NHS-SS-Biotin)). The assay is described as above. The method, then: as §3
Chain of mouse CD40 (P27512 24-193 limits assumed): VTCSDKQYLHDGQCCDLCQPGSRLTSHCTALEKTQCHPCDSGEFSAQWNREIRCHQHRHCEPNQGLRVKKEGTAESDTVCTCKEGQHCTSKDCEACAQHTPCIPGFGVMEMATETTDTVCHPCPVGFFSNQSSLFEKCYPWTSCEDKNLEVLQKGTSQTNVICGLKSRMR

Chain of human CD137 expressed on cells (Q07011 24-255): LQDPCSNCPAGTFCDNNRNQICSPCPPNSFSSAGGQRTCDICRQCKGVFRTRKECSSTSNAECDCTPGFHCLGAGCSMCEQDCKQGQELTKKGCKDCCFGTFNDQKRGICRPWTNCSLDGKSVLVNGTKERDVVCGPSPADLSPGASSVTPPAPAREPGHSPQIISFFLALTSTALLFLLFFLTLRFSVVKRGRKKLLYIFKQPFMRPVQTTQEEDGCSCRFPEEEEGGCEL
Chain of human CD40 (P25942 21-193 limits assumed): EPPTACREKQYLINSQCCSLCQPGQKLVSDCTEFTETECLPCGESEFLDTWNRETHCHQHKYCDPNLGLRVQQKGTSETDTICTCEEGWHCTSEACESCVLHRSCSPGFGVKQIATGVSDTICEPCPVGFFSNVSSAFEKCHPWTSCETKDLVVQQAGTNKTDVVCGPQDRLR
T6 sequence (Q07011 24-186): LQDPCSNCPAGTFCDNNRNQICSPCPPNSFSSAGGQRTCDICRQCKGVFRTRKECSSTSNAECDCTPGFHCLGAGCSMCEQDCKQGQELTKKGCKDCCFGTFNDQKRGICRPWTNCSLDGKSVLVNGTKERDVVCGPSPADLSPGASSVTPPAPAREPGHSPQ
T5 sequence (Q07011 24-186): as above

B1: mCD137-mFc-Avi (Fc fusion, not shown: a dimerising Fc or GST; small tags and cut ends)
chain: VQNSCDNCQPGTFCRKYNPVCKSCPPSTFSSIGGQPNCNICRVCAGYFRFKKFCSSTHNAECECIEGFHCLGPQCTRCEKDCRPGQELTKQGCKTCSLGTFNDQNGTGVCRPWTNCSLDGRSVLKTGTTEKDVVCGPPVVSFSPSTTISVTPEGGPGGHSLQVL
modifications: one biotin on each Avi tag in the biotinylated form
notes: also called mouse dimeric CD137; mouse CD137-mFc-Avi
For the molecule B1, the binding result in [1] is “binds”.

B2: FS22-172-003/HelD1.3 (bispecific antibody, human IgG1, kappa, L234A L235A)
heavy: QVQLQESGPGLVRPSQTLSLTCTVSGSTFSGYGVNWVRQPPGRGLEWIGMIWGDGNTDYNSALKSRVTMLVDTSKNQFSLRLSSVTAADTAVYYCARERDYRLDYWGQGSLVTVSSASTKGPSVFPLAPSSKSTSGGTAALGCLVKDYFPEPVTVSWNSGALTSGVHTFPAVLQSSGLYSLSSVVTVPSSSLGTQTYICNVNHKPSNTKVDKKVEPKSCDKTHTCPPCPAPEAAGGPSVFLFPPKPKDTLMISRTPEVTCVVVDVSHEDPEVKFNWYVDGVEVHNAKTKPREEQYNSTYRVVSVLTVLHQDWLNGKEYKCKVSNKALPAPIEKTISKAKGQPREPQVYTLPPSRDELPYIIPPYNQVSLTCLVKGFYPSDIAVEWESNGQPENNYKTTPPVLDSDGSFFLYSKLTVGADRWLEGNVFSCSVMHEALHNHYTQKSLSLSPG
light: DIQMTQSPASLSASVGETVTITCRASGNIHNYLAWYQQKQGKSPQLLVYNAKTLADGVPSRFSGSGSGTQYSLKINSLQPEDFGSYYCQHFWSTPRTFGGGTKLEIKRTVAAPSVFIFPPSDEQLKSGTASVVCLLNNFYPREAKVQWKVDNALQSGNSQESVTEQDSKDSTYSLSSTLTLSKADYEKHKVYACEVTHQGLSSPVTKSFNRGEC
notes: IgG1
With B2, the binding result in the assay with human OX40, in the assay with human GITR and with human CD40 was “no binding (tested: 1 µM)” throughout. Also, in assay [2], the “NF-κB luciferase reporter EC50, HEK.FRT.luc.hCD137 cells, crosslinked with Protein L (+XL)” value is 32.6 nM. Also, the Kd in the assay with cCD137-mFc-Avi stood at 1.3 nM; in the assay with hCD137-mFc-Avi, 1.5 nM. Besides, in the assay with hCD137-Avi-His, the “human monomeric CD137 KD fold difference relative to human dimeric KD” value is more than 200 fold.

B3: FS22m-063 in mock mAb^2 (HelD1.3) format (bispecific antibody, human IgG1, kappa, L234A L235A)
heavy: QVQLQESGPGLVRPSQTLSLTCTVSGSTFSGYGVNWVRQPPGRGLEWIGMIWGDGNTDYNSALKSRVTMLVDTSKNQFSLRLSSVTAADTAVYYCARERDYRLDYWGQGSLVTVSSASTKGPSVFPLAPSSKSTSGGTAALGCLVKDYFPEPVTVSWNSGALTSGVHTFPAVLQSSGLYSLSSVVTVPSSSLGTQTYICNVNHKPSNTKVDKKVEPKSCDKTHTCPPCPAPEAAGGPSVFLFPPKPKDTLMISRTPEVTCVVVDVSHEDPEVKFNWYVDGVEVHNAKTKPREEQYNSTYRVVSVLTVLHQDWLNGKEYKCKVSNKALPAPIEKTISKAKGQPREPQVYTLPPSRDEPYWSYVSLTCLVKGFYPSDIAVEWESNGQPENNYKTTPPVLDSDGSFFLYSKLTVMNYRWELGNVFSCSVMHEALHNHYTQKSLSLSPG
light: DIQMTQSPASLSASVGETVTITCRASGNIHNYLAWYQQKQGKSPQLLVYNAKTLADGVPSRFSGSGSGTQYSLKINSLQPEDFGSYYCQHFWSTPRTFGGGTKLEIKRTVAAPSVFIFPPSDEQLKSGTASVVCLLNNFYPREAKVQWKVDNALQSGNSQESVTEQDSKDSTYSLSSTLTLSKADYEKHKVYACEVTHQGLSSPVTKSFNRGEC
notes: The entries are those of FS22m-063-AA/HelD1.3 (with LALA); also called FS22m-063-AA/HelD1.3; FS22m-063/HeID1.3
For B3, in assay [3], the “NF-κB luciferase reporter EC50, HEK.FRT.luc.mCD137 cells, crosslinked with Protein L” value amounted to 1.44 nM and the “NF-κB luciferase reporter, fold-change in activity upon Protein L crosslinking” value is 27 fold. The binding result with mouse GITR is reported as “no binding (tested: at least 1 µM)”. In addition, in the assay with mouse CD40, the binding result is on record as “no binding (tested: at least 1 µM)”.
